Laboratory results: patent US11760780B2, “Targeting dimerization of BAX to modulate BAX activity” (ALBERT EINSTEIN COLLEGE OF MEDICINE, priority 2014, dated 2023)
Positions of bridges follow the written chain, without caps; N, C: chain ends. Non-standard residues stand in square brackets, D forms with d. S5 = C=CCCC[C@](C)(N)C(=O)O

Key:
Assay type in all cases: biochemical
BAX [1] = biological target: T1, BAX (Homo sapiens, UniProt Q07812); assay: Liposomal permeabilization assay (ANTS/DPX release)
T1 construct: made in house; host or cells: E. coli BL21 (DE3) codon+
Experimental: (§1) Liposomes were composed of the following molar percentages of lipids (Avanti Polar Lipids): phosphatidylcholine, 48%; phosphatidylethanolamine, 28%; phosphatidylinositol, 10%; dioleoyl phosphatidylserine, 10%; and tetraoleoyl cardiolipin, 4% and were loaded with ANTS/DPX (Molecular Probe) upon extrusion. BAX (400 nM) was combined with BIM SAHBA2 at the indicated concentrations in 96-well format (Corning) and then liposomes were added (10 μl from 50 mM total lipid stock) in assay buffer (10 mM HEPES, pH 7, 200 mM KCl, 5 mM MgCl2, and 0.2 mM EDTA) to a final volume of 100 μl. ANTS/DPX release was quantified based on the increase in fluorescence intensity that occurs when the ANTS fluorophore is separated from the DPX quencher upon release from the liposomes into the supernatant. Fluorescence (λex=355 nm and λem=520 nm) was measured over time at 30° C. using a Tecan Infinite M1000 plate reader. The percentage release of ANTS/DPX at 90 min was calculated as percentage release=((F−F0)/(F100−F0))×100, where F0 and F100 are baseline and maximal fluorescence, respectively. 1% Triton treatment is used to determine the maximum amount of liposomal release per assay, and this value sets the 100% value.

BAX [2] = biological target: T2, BAX (Homo sapiens, UniProt Q07812, P168G); assay: as above; settings: purified BAX P168G dimer, increasing doses, maximum release at 90 min, FIG. 14B
T2 construct: made in house; host or cells: E. coli BL21 (DE3) codon+
Experimental: as §1

BAX 4MA dimer = biological target: T3, BAX 4MA dimer (Homo sapiens, UniProt Q07812, C126S/C62S/I136C/V121C); assay: BAX dimer dissociation / oligomerization by size exclusion chromatography; settings: FIG. 14A
T3 construct: made in house; host or cells: E. coli BL21 (DE3) codon+
Experimental: Superdex 75 10/300 GL and 200 10/300 GL (GE Healthcare) columns were used for size exclusion chromatography of recombinant proteins and cell extracts. Recombinant protein was injected in columns equilibrated with a buffer containing 20 mM HEPES pH 7.2, 150 mM KCl, 1 mM DTT. 1 mg of cytosolic or membrane extracts was applied to a Superdex 200 10/300 GL equilibrated in buffer containing 10 mM Tris, pH 7.5, 1 mM EGTA, 200 mM Sucrose and Complete Protease Inhibitors. Fractions of 500 μl were collected, and 30 μl of each fraction was analyzed by SDS-PAGE and immunoblotting. All operations were run at 4° C. Gel filtration molecular weight markers (GE Healthcare) were also subjected to the columns to obtain a standard curve for the estimation of the molecular weight of the proteins.
BAX wild type and mutants were concentrated to ˜0.5 mM in BAX buffer (10 mM HEPES pH 7, 150 mM KCl, 1 mM DTT) and incubated at 20° C. for 1-3 days before diluting to a total volume of 250 μl and loaded onto a Superdex 75 HR 10/30 size exclusion column (GE Healthcare). These conditions allow a controlled dimerization process than aggregation due to BAX activation. Separation of monomeric and dimeric BAX was achieved using a flow rate of 0.5 ml/min at 4° C. The chromatogram traces show the monomeric and dimeric peaks at ˜11.8 and ˜10.4 ml, respectively. […]

T1 sequence (Q07812 whole entry): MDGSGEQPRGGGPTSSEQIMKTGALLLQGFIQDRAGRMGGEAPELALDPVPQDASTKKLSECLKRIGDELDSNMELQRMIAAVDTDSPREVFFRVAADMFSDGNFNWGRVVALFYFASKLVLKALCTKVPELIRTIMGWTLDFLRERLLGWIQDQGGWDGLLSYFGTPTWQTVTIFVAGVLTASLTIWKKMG
T3 sequence (Q07812 whole entry C62S/V121C/C126S/I136C): as the sequence (Q07812 whole entry) above, with C62S, V121C, C126S, I136C counted along it
T2 sequence (Q07812 whole entry P168G): as the sequence (Q07812 whole entry) above, with P168G counted along it

- membrane permeabilization by BAX dimer upon addition of activator (BAX [1]; SEC-isolated BAX dimer, liposomes, FIG. 1D): nearly inactive
- doses required to activate BAX WT dimer versus dose that fully activates BAX WT monomer (BAX [1]; purified BAX WT dimer, maximum release at 90 min, FIG. 14B): significantly higher
- activation of BAX P168G dimer compared to BAX WT dimer (BAX [2]): more resistant to activation
Substance: N-acetylated^145EIWIAQELRS5IGDS5FNAYYA^164-CONH2 (Ac-EIWIAQELR[S5]IGD[S5]FNAYYA-NH2; staple 10-14; SMILES CC[C@H](C)[C@H](NC(=O)[C@H](Cc1c[nH]c2ccccc12)NC(=O)[C@@H](NC(=O)[C@H](CCC(=O)O)NC(C)=O)[C@@H](C)CC)C(=O)N[C@@H](C)C(=O)N[C@@H](CCC(N)=O)C(=O)N[C@@H](CCC(=O)O)C(=O)N[C@@H](CC(C)C)C(=O)N[C@@H](CCCNC(=N)N)C(=O)N[C@@]1(C)CCCC=CCCC[C@@](C)(C(=O)N[C@@H](Cc2ccccc2)C(=O)N[C@@H](CC(N)=O)C(=O)N[C@@H](C)C(=O)N[C@@H](Cc2ccc(O)cc2)C(=O)N[C@@H](Cc2ccc(O)cc2)C(=O)N[C@@H](C)C(N)=O)NC(=O)[C@H](CC(=O)O)NC(=O)CNC(=O)[C@H]([C@@H](C)CC)NC1=O) [BIM SAHBA2, Hydrocarbon-stapled peptide corresponding to the BH3 domain of BIM]
- membrane permeabilization by BAX monomer upon addition of activator (BAX [1]; SEC-isolated BAX monomer, liposomes, FIG. 1D): activated and induced membrane permeabilization
- activation of BAX 4MA monomer to induce BAX oligomerization (BAX 4MA dimer; in the presence of reducing agent (DTT)): can also activate BAX 4MA monomer to induce BAX oligomerization
- competition and dissociation of BAX 4MA dimer to monomer (BAX 4MA dimer; isolated BAX 4MA dimer, high doses, Superdex 75 SEC): can compete and dissociate the dimer into monomers
